Results as given in paper PMC8298264, “Function of cofactor Akirin2 in the regulation of gene expression in model human neutrophil-like HL60 cells” (Bioscience Reports, 2021).

B1: SPG21 (protein, UniProt Q9NZD8 1-308, looked up)
Maspardin: MGEIKVSPDYNWFRGTVPLKKIIVDDDDSKIWSLYDAGPRSIRCPLIFLPPVSGTADVFFRQILALTGWGYRVIALQYPVYWDHLEFCDGFRKLLDHLQLDKVHLFGASLGGFLAQKFAEYTHKSPRVHSLILCNSFSDTSIFNQTWTANSFWLMPAFMLKKIVLGNFSSGPVDPMMADAIDFMVDRLESLGQSELASRLTLNCQNSYVEPHKIRDIPVTIMDVFDQSALSTEAKEEMYKLYPNARRAHLKTGGNFPYLCRSAEVNLYVQIHLLQFHGTKYAAIDPSMVSAEELEVQKGSLGISQEEQ
B2: sp¦Q86UP2¦KTN1_HUMAN (protein, UniProt Q86UP2 1-1357, looked up)
Kinectin: MEFYESAYFIVLIPSIVITVIFLFFWLFMKETLYDEVLAKQKREQKLIPTKTDKKKAEKKKNKKKEIQNGNLHESDSESVPRDFKLSDALAVEDDQVAPVPLNVVETSSSVRERKKKEKKQKPVLEEQVIKESDASKIPGKKVEPVPVTKQPTPPSEAAASKKKPGQKKSKNGSDDQDKKVETLMVPSKRQEALPLHQETKQESGSGKKKASSKKQKTENVFVDEPLIHATTYIPLMDNADSSPVVDKREVIDLLKPDQVEGIQKSGTKKLKTETDKENAEVKFKDFLLSLKTMMFSEDEALCVVDLLKEKSGVIQDALKKSSKGELTTLIHQLQEKDKLLAAVKEDAAATKDRCKQLTQEMMTEKERSNVVITRMKDRIGTLEKEHNVFQNKIHVSYQETQQMQMKFQQVREQMEAEIAHLKQENGILRDAVSNTTNQLESKQSAELNKLRQDYARLVNELTEKTGKLQQEEVQKKNAEQAATQLKVQLQEAERRWEEVQSYIRKRTAEHEAAQQDLQSKFVAKENEVQSLHSKLTDTLVSKQQLEQRLMQLMESEQKRVNKEESLQMQVQDILEQNEALKAQIQQFHSQIAAQTSASVLAEELHKVIAEKDKQIKQTEDSLASERDRLTSKEEELKDIQNMNFLLKAEVQKLQALANEQAAAAHELEKMQQSVYVKDDKIRLLEEQLQHEISNKMEEFKILNDQNKALKSEVQKLQTLVSEQPNKDVVEQMEKCIQEKDEKLKTVEELLETGLIQVATKEEELNAIRTENSSLTKEVQDLKAKQNDQVSFASLVEELKKVIHEKDGKIKSVEELLEAELLKVANKEKTVQDLKQEIKALKEEIGNVQLEKAQQLSITSKVQELQNLLKGKEEQMNTMKAVLEEKEKDLANTGKWLQDLQEENESLKAHVQEVAQHNLKEASSASQFEELEIVLKEKENELKRLEAMLKERESDLSSKTQLLQDVQDENKLFKSQIEQLKQQNYQQASSFPPHEELLKVISEREKEISGLWNELDSLKDAVEHQRKKNNDLREKNWEAMEALASTEKMLQDKVNKTSKERQQQVEAVELEAKEVLKKLFPKVSVPSNLSYGEWLHGFEKKAKECMAGTSGSEEVKVLEHKLKEADEMHTLLQLECEKYKSVLAETEGILQKLQRSVEQEENKWKVKVDESHKTIKQMQSSFTSSEQELERLRSENKDIENLRREREHLEMELEKAEMERSTYVTEVRELKDLLTELQKKLDDSYSEAVRQNEELNLLKAQLNETLTKLRTEQNERQKVAGDLHKAQQSLELIQSKIVKAAGDTTVIENSDVSPETESSEKETMSVSLNQTVTQLQQLLQAVNQQLTKEKEHYQVLE
B3: TNIP2 (protein, UniProt Q8NFZ5 1-429, looked up)
TNFAIP3-interacting protein 2: MSRDPGSGGWEEAPRAAAALCTLYHEAGQRLRRLQDQLAARDALIARLRARLAALEGDAAPSLVDALLEQVARFREQLRRQEGGAAEAQMRQEIERLTERLEEKEREMQQLLSQPQHEREKEVVLLRRSMAEGERARAASDVLCRSLANETHQLRRTLTATAHMCQHLAKCLDERQHAQRNVGERSPDQSEHTDGHTSVQSVIEKLQEENRLLKQKVTHVEDLNAKWQRYNASRDEYVRGLHAQLRGLQIPHEPELMRKEISRLNRQLEEKINDCAEVKQELAASRTARDAALERVQMLEQQILAYKDDFMSERADRERAQSRIQELEEKVASLLHQVSWRQDSREPDAGRIHAGSKTAKYLAADALELMVPGGWRPGTGSQQPEPPAEGGHPGAAQRGQGDLQCPHCLQCFSDEQGEELLRHVAECCQ
B4: RNF123 (protein, UniProt Q5XPI4 2-1314, looked up)
E3 ubiquitin-protein ligase …: ASKGAGMSFSRKSYRLTSDAEKSRVTGIVQEKLLNDYLNRIFSSSEHAPPAATSRKPLNFQNLPEHLDQLLQVDNEEEESQGQVEGRLGPSTVVLDHTGGFEGLLLVDDDLLGVIGHSNFGTIRSTTCVYKGKWLYEVLISSQGLMQIGWCTISCRFNQEEGVGDTHNSYAYDGNRVRKWNVTTTNYGKAWAAGDIVSCLIDLDDGTLSFCLNGVSLGTAFENLSRGLGMAYFPAISLSFKESVAFNFGSRPLRYPVAGYRPLQDPPSADLVRAQRLLGCFRAVLSVELDPVEGRLLDKESSKWRLRGQPTVLLTLAHIFHHFAPLLRKVYLVEAVLMSFLLGIVEKGTPTQAQSVVHQVLDLLWLFMEDYEVQDCLKQLMMSLLRLYRFSPIVPDLGLQIHYLRLTIAILRHEKSRKFLLSNVLFDVLRSVVFFYIKSPLRVEEAGLQELIPTTWWPHCSSREGKESTEMKEETAEERLRRRAYERGCQRLRKRIEVVEELQVQILKLLLDNKDDNGGEASRYIFLTKFRKFLQENASGRGNMPMLCPPEYMVCFLHRLISALRYYWDEYKASNPHASFSEEAYIPPQVFYNGKVDYFDLQRLGGLLSHLRKTLKDDLASKANIVIDPLELQSTAMDDLDEDEEPAPAMAQRPMQALAVGGPLPLPRPGWLSSPTLGRANRFLSTAAVSLMTPRRPLSTSEKVKVRTLSVEQRTREDIEGSHWNEGLLLGRPPEEPEQPLTENSLLEVLDGAVMMYNLSVHQQLGKMVGVSDDVNEYAMALRDTEDKLRRCPKRRKDILAELTKSQKVFSEKLDHLSRRLAWVHATVYSQEKMLDIYWLLRVCLRTIEHGDRTGSLFAFMPEFYLSVAINSYSALKNYFGPVHSMEELPGYEETLTRLAAILAKHFADARIVGTDIRDSLMQALASYVCYPHSLRAVERIPEEQRIAMVRNLLAPYEQRPWAQTNWILVRLWRGCGFGYRYTRLPHLLKTKLEDANLPSLQKPCPSTLLQQHMADLLQQGPDVAPSFLNSVLNQLNWAFSEFIGMIQEIQQAAERLERNFVDSRQLKVCATCFDLSVSLLRVLEMTITLVPEIFLDWTRPTSEMLLRRLAQLLNQVLNRVTAERNLFDRVVTLRLPGLESVDHYPILVAVTGILVQLLVRGPASEREQATSVLLADPCFQLRSICYLLGQPEPPAPGTALPAPDRKRFSLQSYADYISADELAQVEQMLAHLTSASAQAAAASLPTSEEDLCPICYAHPISAVFQPCGHKSCKACINQHLMNNKDCFFCKTTIVSVEDWEKGANTSTTSSAA
B5: SORBS3 (protein, UniProt O60504 1-671, looked up)
Vinexin: MQGPPRSLRAGLSLDDFIPGHLQSHIGSSSRGTRVPVIRNGGSNTLNFQFHDPAPRTVCNGGYTPRRDASQHPDPAWYQTWPGPGSKPSASTKIPASQHTQNWSATWTKDSKRRDKRWVKYEGIGPVDESGMPIAPRSSVDRPRDWYRRMFQQIHRKMPDLQLDWTFEEPPRDPRHLGAQQRPAHRPGPATSSSGRSWDHSEELPRSTFNYRPGAFSTVLQPSNQVLRRREKVDNVWTEESWNQFLQELETGQRPKKPLVDDPGEKPSQPIEVLLERELAELSAELDKDLRAIETRLPSPKSSPAPRRAPEQRPPAGPASAWSSSYPHAPYLGSARSLSPHKMADGGSPFLGRRDFVYPSSTRDPSASNGGGSPARREEKKRKAARLKFDFQAQSPKELTLQKGDIVYIHKEVDKNWLEGEHHGRLGIFPANYVEVLPADEIPKPIKPPTYQVLEYGEAVAQYTFKGDLEVELSFRKGEHICLIRKVNENWYEGRITGTGRQGIFPASYVQVSREPRLRLCDDGPQLPTSPRLTAAARSARHPSSPSALRSPADPIDLGGQTSPRRTGFSFPTQEPRPQTQNLGTPGPALSHSRGPSHPLDLGTSSPNTSQIHWTPYRAMYQYRPQNEDELELREGDRVDVMQQCDDGWFVGVSRRTQKFGTFPGNYVAPV
B6: SIRT1 (protein, UniProt Q96EB6 2-747, looked up)
NAD-dependent protein …: ADEAALALQPGGSPSAAGADREAASSPAGEPLRKRPRRDGPGLERSPGEPGGAAPEREVPAAARGCPGAAAAALWREAEAEAAAAGGEQEAQATAAAGEGDNGPGLQGPSREPPLADNLYDEDDDDEGEEEEEAAAAAIGYRDNLLFGDEIITNGFHSCESDEEDRASHASSSDWTPRPRIGPYTFVQQHLMIGTDPRTILKDLLPETIPPPELDDMTLWQIVINILSEPPKRKKRKDINTIEDAVKLLQECKKIIVLTGAGVSVSCGIPDFRSRDGIYARLAVDFPDLPDPQAMFDIEYFRKDPRPFFKFAKEIYPGQFQPSLCHKFIALSDKEGKLLRNYTQNIDTLEQVAGIQRIIQCHGSFATASCLICKYKVDCEAVRGDIFNQVVPRCPRCPADEPLAIMKPEIVFFGENLPEQFHRAMKYDKDEVDLLIVIGSSLKVRPVALIPSSIPHEVPQILINREPLPHLHFDVELLGDCDVIINELCHRLGGEYAKLCCNPVKLSEITEKPPRTQKELAYLSELPPTPLHVSEDSSSPERTSPPDSSVIVTLLDQAAKSNDDLDVSESKGCMEEKPQEVQTSRNVESIAEQMENPDLKNVGSSTGEKNERTSVAGTVRKCWPNRVAKEQISRRLDGNQYLFLPPNRYIFHGAEVYSDSEDDVLSSSSCGSNSDSGTCQSPSLEEPMEDESEIEEFYNGLEDEPDVPERAGGAGFGTDGDDQEAINEAISVKQEVTDMNYPSNKS
B7: RNF181 (protein, UniProt Q9P0P0 1-153, looked up)
E3 ubiquitin-protein ligase …: MASYFDEHDCEPSDPEQETRTNMLLELARSLFNRMDFEDLGLVVDWDHHLPPPAAKTVVENLPRTVIRGSQAELKCPVCLLEFEEEETAIEMPCHHLFHSSCILPWLSKTNSCPLCRYELPTDDDTYEEHRRDKARKQQQQHRLENLHGAMYT
B8: sp¦Q7Z3D6¦GLUCM_HUMAN (protein, UniProt Q7Z3D6 29-616, looked up)
D-glutamate cyclase, …: TSSMAGELRPASLVVLPRSLAPAFERFCQVNTGPLPLLGQSEPEKWMLPPQGAISETRMGHPQFWKYEFGACTGSLASLEQYSEQLKDMVAFFLGCSFSLEEALEKAGLPRRDPAGHSQTTVPCVTHAGFCCPLVVTMRPIPKDKLEGLVRACCSLGGEQGQPVHMGDPELLGIKELSKPAYGDAMVCPPGEVPVFWPSPLTSLGAVSSCETPLAFASIPGCTVMTDLKDAKAPPGCLTPERIPEVHHISQDPLHYSIASVSASQKIRELESMIGIDPGNRGIGHLLCKDELLKASLSLSHARSVLITTGFPTHFNHEPPEETDGPPGAVALVAFLQALEKEVAIIVDQRAWNLHQKIVEDAVEQGVLKTQIPILTYQGGSVEAAQAFLCKNGDPQTPRFDHLVAIERAGRAADGNYYNARKMNIKHLVDPIDDLFLAAKKIPGISSTGVGDGGNELGMGKVKEAVRRHIRHGDVIACDVEADFAVIAGVSNWGGYALACALYILYSCAVHSQYLRKAVGPSRAPGDQAWTQALPSVIKEEKMLGILVQHKVRSGVSGIVGMEVDGLPFHNTHAEMIQKLVDVTTAQV

Columns and labels:
AKR2 = test system: AKR2; design: key: A: Very high confidence in the interaction; B: High confidence in the interaction; D: Moderate confidence in the interaction; details: AKR2-interacting proteins (IPs), physical interactome; ref https://doi.org/10.3390/vaccines8010077; cited from earlier work
Excerpt: Supplement BSR-2021-1120_supp1.zip/BSR-2021-1120_suppST4.xlsx, sheet "BPs related to AKR2-IPs" | column: Predicted Biological Score (PBS)

human HL60 cells = assay: SWATH-MS proteomics, differential protein representation, akirin2 KO vs WT HL60 cells; format: cell-based; details: sheet "Under-represented in KO"
Procedure, shortened: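 WT and akirin2 KO HL60 lysates (150 µg, n=3 biological replicates) were FASP trypsin-digested and desalted. A spectral library was built by IDA from 3 µg digests, then 5 µg per sample went to variable-window SWATH DIA over a 120-min 5–30% acetonitrile gradient. Identifications were accepted at 1% global FDR, with total-area-sum normalization.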

Row | Molecule | Predicted Biological Score (PBS) (AKR2) | further results
1 | B1 | A | –
2 | B2 | – | Fold Change (human HL60 cells; akirin2 KO vs WT HL60 cells): 0.24; Log (Fold Change) (human HL60 cells; akirin2 KO vs WT HL60 cells): -0.6198
3 | B3 | A | –
4 | B4 | A | –
5 | B5 | A | –
6 | B6 | D | –
7 | B7 | A | –
8 | B8 | – | Fold Change (human HL60 cells; KO vs WT HL60 cells): 0.5156; Log (Fold Change) (human HL60 cells; KO vs WT HL60 cells): -0.2877
